Test results from PMC6555819, “Comprehensive study of nuclear receptor DNA binding provides a revised framework for understanding receptor specificity”.

target: LXRb:RXRa (Homo sapiens, UniProt P55055;P19793 full;full); assay: no ligand; PBM; 270 nM : 90 nM RXRa; PBS pH 7.4, 2% milk, 0.02% Triton X-100, 1 mM DTT, BSA, 0.4 mg/ml salmon testes DNA; settings: tags: His kept;His cleaved; copies: 1;1; label: surface-attached array probe
Procedure, shortened: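 Each nuclear receptor dimer, without ligand, was incubated for 1 h on custom Agilent 4×180K protein-binding microarrays. Binding was detected with antibodies against each partner (one per run), and scanned fluorescence was regression-normalized. The binding z-scores are referenced to random human genomic background probes.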

Chain of LXRb:RXRa (P55055 whole entry, chain 1 of 2): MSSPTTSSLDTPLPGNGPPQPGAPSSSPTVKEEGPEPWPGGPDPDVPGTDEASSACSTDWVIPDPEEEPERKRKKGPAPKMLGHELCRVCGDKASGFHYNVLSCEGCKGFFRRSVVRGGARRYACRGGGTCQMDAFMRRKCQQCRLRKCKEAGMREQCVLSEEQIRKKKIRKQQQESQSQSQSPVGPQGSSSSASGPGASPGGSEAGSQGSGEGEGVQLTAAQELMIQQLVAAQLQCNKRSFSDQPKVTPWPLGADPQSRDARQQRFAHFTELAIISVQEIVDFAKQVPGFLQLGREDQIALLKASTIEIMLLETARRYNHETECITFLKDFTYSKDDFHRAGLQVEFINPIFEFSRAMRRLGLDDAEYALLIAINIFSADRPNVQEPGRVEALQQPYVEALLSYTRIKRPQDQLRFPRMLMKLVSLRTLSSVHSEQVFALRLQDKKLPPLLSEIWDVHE
Chain of LXRb:RXRa (P19793 whole entry, chain 2 of 2): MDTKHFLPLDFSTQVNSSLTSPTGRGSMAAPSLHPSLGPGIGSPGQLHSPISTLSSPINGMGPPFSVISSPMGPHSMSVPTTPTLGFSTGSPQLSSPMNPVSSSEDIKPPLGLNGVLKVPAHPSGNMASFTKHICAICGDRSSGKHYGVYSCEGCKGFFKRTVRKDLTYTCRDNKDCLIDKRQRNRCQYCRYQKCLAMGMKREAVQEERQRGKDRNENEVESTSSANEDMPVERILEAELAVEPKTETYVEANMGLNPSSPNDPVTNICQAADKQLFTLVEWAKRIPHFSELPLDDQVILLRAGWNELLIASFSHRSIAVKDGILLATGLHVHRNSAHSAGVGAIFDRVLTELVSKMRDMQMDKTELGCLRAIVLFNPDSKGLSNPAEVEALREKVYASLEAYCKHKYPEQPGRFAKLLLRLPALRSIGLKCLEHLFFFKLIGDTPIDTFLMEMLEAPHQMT

Binder	binding signal
NRC3_wobSeed125_DR5_G22C_o1 (dsDNA) DNA 1: GCCCTTACGGGTCACTGACAGCTTATAGCATTTGGAGCGATTGACAGCGTAGAATGAAGG DNA 2: CCTTCATTCTACGCTGTCAATCGCTCCAAATGCTATAAGCTGTCAGTGACCCGTAAGGGC	3.19 PBM z-score against 500 random probes
NRC3_wobSeed21_DR0_C21A_o1 (dsDNA) DNA 1: GCCGTCAAAGTTCAAGGTAAAGTAACAGAAAGCAGCGCGATTGACAGCGTAGAATGAAGG DNA 2: CCTTCATTCTACGCTGTCAATCGCGCTGCTTTCTGTTACTTTACCTTGAACTTTGACGGC	3.04 PBM z-score against 500 random probes
NRC3_wobSeed21_DR0_C13A_o1 (dsDNA) DNA 1: GCCGTCAAAGTTAAAGGTAACGTAACAGAAAGCAGCGCGATTGACAGCGTAGAATGAAGG DNA 2: CCTTCATTCTACGCTGTCAATCGCGCTGCTTTCTGTTACGTTACCTTTAACTTTGACGGC	0.26 PBM z-score against 500 random probes
NRC3_wobSeed133_DR5_C13A_o1 (dsDNA) DNA 1: GCCGTCCAAGGTAAATGCTAGGTCAGTGAAAGCATTGCGATTGACAGCGTAGAATGAAGG DNA 2: CCTTCATTCTACGCTGTCAATCGCAATGCTTTCACTGACCTAGCATTTACCTTGGACGGC	0.46 PBM z-score against 500 random probes
NRC3_wobSeed133_DR5_T12G_o1 (dsDNA) DNA 1: GCCGTCCAAGGGCAATGCTAGGTCAGTGAAAGCATTGCGATTGACAGCGTAGAATGAAGG DNA 2: CCTTCATTCTACGCTGTCAATCGCAATGCTTTCACTGACCTAGCATTGCCCTTGGACGGC	0.44 PBM z-score against 500 random probes
NRC3_wobSeed70_DR2_o1 (dsDNA) DNA 1: GCGTACCAAGGTGAATAGGTCGTTGATGAGTAGGCGGCGATTGACAGCGTAGAATGAAGG DNA 2: CCTTCATTCTACGCTGTCAATCGCCGCCTACTCATCAACGACCTATTCACCTTGGTACGC	0.5 PBM z-score against 500 random probes
NRC3_random_hg19_477_o1 (dsDNA) DNA 1: GCAACAAACTTCCTTGCTCTAGTTCATCAGCAATGAGCGATTGACAGCGTAGAATGAAGG DNA 2: CCTTCATTCTACGCTGTCAATCGCTCATTGCTGATGAACTAGAGCAAGGAAGTTTGTTGC	0.49 PBM z-score against 500 random probes
NRC3_wobSeed53_DR2_C13A_o1 (dsDNA) DNA 1: GCCCTTACGGGTAACGAGGTTATAGCACGACGAGCGGCGATTGACAGCGTAGAATGAAGG DNA 2: CCTTCATTCTACGCTGTCAATCGCCGCTCGTCGTGCTATAACCTCGTTACCCGTAAGGGC	0.41 PBM z-score against 500 random probes
NRC3_wobSeed4_DR0_T25C_o1 (dsDNA) DNA 1: GCCCTACTGGGCCAAGGTCATTGACCAGTCAAAGCAGCGATTGACAGCGTAGAATGAAGG DNA 2: CCTTCATTCTACGCTGTCAATCGCTGCTTTGACTGGTCAATGACCTTGGCCCAGTAGGGC	3.2 PBM z-score against 500 random probes
NRC3_wobSeed4_DR0_T8A_o1 (dsDNA) DNA 1: GCCCTACAGGGCCAAGGTCATTGATCAGTCAAAGCAGCGATTGACAGCGTAGAATGAAGG DNA 2: CCTTCATTCTACGCTGTCAATCGCTGCTTTGACTGATCAATGACCTTGGCCCTGTAGGGC	3.02 PBM z-score against 500 random probes
NRC3_wobSeed2_DR0_A20C_o1 (dsDNA) DNA 1: GCCCTAGTTGGTCAAGGTCCCACACGCTATAGGTACGCGATTGACAGCGTAGAATGAAGG DNA 2: CCTTCATTCTACGCTGTCAATCGCGTACCTATAGCGTGTGGGACCTTGACCAACTAGGGC	0.48 PBM z-score against 500 random probes
NRC3_wobSeed65_DR2_G27T_o1 (dsDNA) DNA 1: GCATATGTAGGTTATCGGGTCATTCATTTTGCGCATGCGATTGACAGCGTAGAATGAAGG DNA 2: CCTTCATTCTACGCTGTCAATCGCATGCGCAAAATGAATGACCCGATAACCTACATATGC	3.32 PBM z-score against 500 random probes
NRC3_wobSeed65_DR2_T15C_o1 (dsDNA) DNA 1: GCATATGTAGGTTACCGGGTCATTCAGTTTGCGCATGCGATTGACAGCGTAGAATGAAGG DNA 2: CCTTCATTCTACGCTGTCAATCGCATGCGCAAACTGAATGACCCGGTAACCTACATATGC	3.17 PBM z-score against 500 random probes
NRC3_wobSeed5_DR0_G23C_o1 (dsDNA) DNA 1: GCCCTTACGGGTCAAGGTTATACCACGGGTGGTACGGCGATTGACAGCGTAGAATGAAGG DNA 2: CCTTCATTCTACGCTGTCAATCGCCGTACCACCCGTGGTATAACCTTGACCCGTAAGGGC	3.06 PBM z-score against 500 random probes
NRC3_wobSeed50_DR2_T8A_o1 (dsDNA) DNA 1: GCCCTAGATGGTCAGGAGGTCACACACCGGATATGAGCGATTGACAGCGTAGAATGAAGG DNA 2: CCTTCATTCTACGCTGTCAATCGCTCATATCCGGTGTGTGACCTCCTGACCATCTAGGGC	3.37 PBM z-score against 500 random probes
NRC3_wobSeed50_DR2_G18A_o1 (dsDNA) DNA 1: GCCCTAGTTGGTCAGGAAGTCACACACCGGATATGAGCGATTGACAGCGTAGAATGAAGG DNA 2: CCTTCATTCTACGCTGTCAATCGCTCATATCCGGTGTGTGACTTCCTGACCAACTAGGGC	0.38 PBM z-score against 500 random probes
NRC3_wobSeed100_DR4_C23G_o1 (dsDNA) DNA 1: GCCCTACTGGGCCACGAAAGGTGATTGATTCAGTGAGCGATTGACAGCGTAGAATGAAGG DNA 2: CCTTCATTCTACGCTGTCAATCGCTCACTGAATCAATCACCTTTCGTGGCCCAGTAGGGC	-0.2 PBM z-score against 500 random probes

Binder	binding signal
NRC3_wobSeed113_DR4_G20A_o1 (dsDNA) DNA 1: GCATATGTAGGTTAGCTGGAGTCATTCAGACTAGGCGCGATTGACAGCGTAGAATGAAGG DNA 2: CCTTCATTCTACGCTGTCAATCGCGCCTAGTCTGAATGACTCCAGCTAACCTACATATGC	0.16 PBM z-score against 500 random probes
NRC3_wobSeed27_DR1_C20G_o1 (dsDNA) DNA 1: GCACTCGGAGGACAAAGGTGAGAGCTACGCCAGTGAGCGATTGACAGCGTAGAATGAAGG DNA 2: CCTTCATTCTACGCTGTCAATCGCTCACTGGCGTAGCTCTCACCTTTGTCCTCCGAGTGC	0.32 PBM z-score against 500 random probes
NRC3_wobSeed27_DR1_C20A_o1 (dsDNA) DNA 1: GCACTCGGAGGACAAAGGTAAGAGCTACGCCAGTGAGCGATTGACAGCGTAGAATGAAGG DNA 2: CCTTCATTCTACGCTGTCAATCGCTCACTGGCGTAGCTCTTACCTTTGTCCTCCGAGTGC	-0.49 PBM z-score against 500 random probes
NRC3_wobSeed82_DR3_T25A_o1 (dsDNA) DNA 1: GCATCGAAAGGTCGACGAGGTGAGAATACACCGTTTGCGATTGACAGCGTAGAATGAAGG DNA 2: CCTTCATTCTACGCTGTCAATCGCAAACGGTGTATTCTCACCTCGTCGACCTTTCGATGC	3.13 PBM z-score against 500 random probes
NRC3_wobSeed136_DR5_A9C_o1 (dsDNA) DNA 1: GCTAGCCTCGGTCATTCAGGGGCCAGTATAGAAAGCGCGATTGACAGCGTAGAATGAAGG DNA 2: CCTTCATTCTACGCTGTCAATCGCGCTTTCTATACTGGCCCCTGAATGACCGAGGCTAGC	0.42 PBM z-score against 500 random probes
NRC3_wobSeed118_DR4_G15A_o1 (dsDNA) DNA 1: GCTTACCAAGGTGAACTGAGGTCGTTGATCCAACTCGCGATTGACAGCGTAGAATGAAGG DNA 2: CCTTCATTCTACGCTGTCAATCGCGAGTTGGATCAACGACCTCAGTTCACCTTGGTAAGC	3.08 PBM z-score against 500 random probes
NRC3_wobSeed130_DR5_C17G_o1 (dsDNA) DNA 1: GCCTCGAAAGGTCGTGGTCAGGTGAGTATACCAAACGCGATTGACAGCGTAGAATGAAGG DNA 2: CCTTCATTCTACGCTGTCAATCGCGTTTGGTATACTCACCTGACCACGACCTTTCGAGGC	3.33 PBM z-score against 500 random probes
NRC3_wobSeed114_DR4_C13G_o1 (dsDNA) DNA 1: GCAATACAGGGTGATCGTAGGCCAGAGTACGCACAGGCGATTGACAGCGTAGAATGAAGG DNA 2: CCTTCATTCTACGCTGTCAATCGCCTGTGCGTACTCTGGCCTACGATCACCCTGTATTGC	0.1 PBM z-score against 500 random probes
NRC3_wobSeed42_DR1_G11A_o1 (dsDNA) DNA 1: GCTATACAGGATCAAAGGCCAGAGTACGAATGTCGAGCGATTGACAGCGTAGAATGAAGG DNA 2: CCTTCATTCTACGCTGTCAATCGCTCGACATTCGTACTCTGGCCTTTGATCCTGTATAGC	0.47 PBM z-score against 500 random probes
NRC3_wobSeed116_DR4_G26T_o1 (dsDNA) DNA 1: GCAGAATGAGGTTACCAAAGATCAGTGAAACGCTTGGCGATTGACAGCGTAGAATGAAGG DNA 2: CCTTCATTCTACGCTGTCAATCGCCAAGCGTTTCACTGATCTTTGGTAACCTCATTCTGC	3.35 PBM z-score against 500 random probes
NRC3_wobSeed116_DR4_A6G_o1 (dsDNA) DNA 1: GCAGAGTGAGGTTACCAAAGATCAGGGAAACGCTTGGCGATTGACAGCGTAGAATGAAGG DNA 2: CCTTCATTCTACGCTGTCAATCGCCAAGCGTTTCCCTGATCTTTGGTAACCTCACTCTGC	3.28 PBM z-score against 500 random probes
NRC3_wobSeed116_DR4_C15G_o1 (dsDNA) DNA 1: GCAGAATGAGGTTAGCAAAGATCAGGGAAACGCTTGGCGATTGACAGCGTAGAATGAAGG DNA 2: CCTTCATTCTACGCTGTCAATCGCCAAGCGTTTCCCTGATCTTTGCTAACCTCATTCTGC	0.41 PBM z-score against 500 random probes
NRC3_wobSeed74_DR3_T8C_o1 (dsDNA) DNA 1: GCTCTAGCTGGTCACGGAGGTCACACACGACGGGTAGCGATTGACAGCGTAGAATGAAGG DNA 2: CCTTCATTCTACGCTGTCAATCGCTACCCGTCGTGTGTGACCTCCGTGACCAGCTAGAGC	3.16 PBM z-score against 500 random probes
NRC3_wobSeed88_DR3_C21T_o1 (dsDNA) DNA 1: GCTAGCCTAGGTCATGCGGGTCAGTATAGTGTCGGCGCGATTGACAGCGTAGAATGAAGG DNA 2: CCTTCATTCTACGCTGTCAATCGCGCCGACACTATACTGACCCGCATGACCTAGGCTAGC	3 PBM z-score against 500 random probes
NRC3_wobSeed58_DR2_T26C_o1 (dsDNA) DNA 1: GCATCGAAAGGTCGTGAGGTGAGTACACAGAAAGGCGCGATTGACAGCGTAGAATGAAGG DNA 2: CCTTCATTCTACGCTGTCAATCGCGCCTTTCTGTGTACTCACCTCACGACCTTTCGATGC	3.15 PBM z-score against 500 random probes
NRC3_wobSeed58_DR2_G18A_o1 (dsDNA) DNA 1: GCATCGAAAGGTCGTGAAGTGAGTATACAGAAAGGCGCGATTGACAGCGTAGAATGAAGG DNA 2: CCTTCATTCTACGCTGTCAATCGCGCCTTTCTGTATACTCACTTCACGACCTTTCGATGC	3.09 PBM z-score against 500 random probes
